# Experimental data taken from publication PMC5454376, “Molecular mechanism of Gαi activation by non-GPCR proteins with a Gα-Binding and Activating motif” (Nature Communications, 2017).
# B1: Human His-Gαi3 WT [human] / Fluorescein-labelled RGS12 GoLoco peptide (residues 1,185–1,221) [modified: 5,6-carboxyfluorescein coupled to the resin-bound peptide after chain elongation; 5,6-carboxyfluorescein coupled to the … (parent)
# chain 1: MGCTLSAEDKAAVERSKMIDRNLREDGEKAAKEVKLLLLGAGESGKSTIVKQMKIIHEDGYSEDECKQYKVVVYSNTIQSIIAIIRAMGRLKIDFGEAARADDARQLFVLAGSAEEGVMTPELAGVIKRLWRDGGVQACFSRSREYQLNDSASYYLNDLDRISQSNYIPTQQDVLRTRVKTTGIVETHFTFKDLYFKMFDVGGQRSERKKWIHCFEGVTAIIFCVALSDYDLVLAEDEEMNRMHESMKLFDSICNNKWFTETSIILFLNKKDLFEEKIKRSPLTICYPEYTGSNTYEEAAAYIQCQFEDLNRRKDTKEIYTHFTCATDTKNVQFVFDAVTDVIIKNNLKECGLY
# chain 2: DEAEEFFELISKAQSNRADDQRGLLRKEDLVLPEFLR
# Variants of: B1
# Experiment: fluorescence polarisation
# Conditions: with Fluorescein-labelled RGS12 GoLoco peptide (residues 1,185–1,221) [modified: 5,6-carboxyfluorescein coupled to the resin-bound peptide after chain elongation
row,ratio to parent,Variant
1,6.17,chain 1 MGCTLSAEDKAAVERSKMIDRNLREDGEKAAKEVKLLLLGAGESGKSTIVKQMKIIHEDGYSEDECKQYKVVVYSNTIQSIIAIIRAMGRLKIDFGEAARADDARQLFVLAGSAEEGVMTPELAGVIKRLWRDGGVQACFSRSREYQLNDSASYYLNDLDRISQSNYIPTQQDVLRTRVKTTGIVETHFTFKDLYFKMFDVGGQRSERKKWIHCFEGVTAIIFCVALSDYDLVLAEDEEMNRMHESMKLFDDICNNKWFTETSIILFLNKKDLFEEKIKRSPLTICYPEYTGSNTYEEAAAYIQCQFEDLNRRKDTKEIYTHFTCATDTKNVQFVFDAVTDVIIKNNLKECGLY [chain 1 S252D]
2,5.78,chain 1 MGCTLSAEDKAAVERSKMIDRNLREDGEKAAKEVKLLLLGAGESGKSTIVKQMKIIHEDGYSEDECKQYKVVVYSNTIQSIIAIIRAMGRLKIDFGEAARADDARQLFVLAGSAEEGVMTPELAGVIKRLWRDGGVQACFSRSREYQLNDSASYYLNDLDRISQSNYIPTQQDVLRTRVKTTGIVETHFTFKDLYFKMFDVGGQRSERKKWIHCFEGVTAIIFCVALSDYDLVLAEDEEMNRMHESMKLFDSICNEKWFTETSIILFLNKKDLFEEKIKRSPLTICYPEYTGSNTYEEAAAYIQCQFEDLNRRKDTKEIYTHFTCATDTKNVQFVFDAVTDVIIKNNLKECGLY [chain 1 N256E]
3,1.42,chain 1 MGCTLSAEDKAAVERSKMIDRNLREDGEKAAKEVKLLLLGAGESGKSTIVKQMKIIHEDGYSEDECKQYKVVVYSNTIQSIIAIIRAMGRLKIDFGEAARADDARQLFVLAGSAEEGVMTPELAGVIKRLWRDGGVQACFSRSREYQLNDSASYYLNDLDRISQSNYIPTQQDVLRTRVKTTGIVETHFTFKDLYFKMFDVGGQRSERKKWIHCFEGVTAIIFCVALSDYDLVLAEDEEMNRMHESMKLFDSICNAKWFTETSIILFLNKKDLFEEKIKRSPLTICYPEYTGSNTYEEAAAYIQCQFEDLNRRKDTKEIYTHFTCATDTKNVQFVFDAVTDVIIKNNLKECGLY [chain 1 N256A]
4,3.43,chain 1 MGCTLSAEDKAAVERSKMIDRNLREDGEKAAKEVKLLLLGAGESGKSTIVKQMKIIHEDGYSEDECKQYKVVVYSNTIQSIIAIIRAMGRLKIDFGEAARADDARQLFVLAGSAEEGVMTPELAGVIKRLWRDGGVQACFSRSREYQLNDSASYYLNDLDRISQSNYIPTQQDVLRTRVKTTGIVETHFTFKDLYFKMFDVGGQRSERKKWIHCFEGVTAIIFCVALSDYDLVLAEDEEMNRMHESMKLFDSICNNKWATETSIILFLNKKDLFEEKIKRSPLTICYPEYTGSNTYEEAAAYIQCQFEDLNRRKDTKEIYTHFTCATDTKNVQFVFDAVTDVIIKNNLKECGLY [chain 1 F259A]
5,1.53,chain 1 MGCTLSAEDKAAVERSKMIDRNLREDGEKAAKEVKLLLLGAGESGKSTIVKQMKIIHEDGYSEDECKQYKVVVYSNTIQSIIAIIRAMGRLKIDFGEAARADDARQLFVLAGSAEEGVMTPELAGVIKRLWRDGGVQACFSRSREYQLNDSASYYLNDLDRISQSNYIPTQQDVLRTRVKTTGAVETHFTFKDLYFKMFDVGGQRSERKKWIHCFEGVTAIIFCVALSDYDLVLAEDEEMNRMHESMKLFDSICNNKWFTETSIILFLNKKDLFEEKIKRSPLTICYPEYTGSNTYEEAAAYIQCQFEDLNRRKDTKEIYTHFTCATDTKNVQFVFDAVTDVIIKNNLKECGLY [chain 1 I184A]

# The remaining lines, values behind:
row,Variant,ratio to parent
1,chain 1 MGCTLSAEDKAAVERSKMIDRNLREDGEKAAKEVKLALLGAGESGKSTIVKQMKIIHEDGYSEDECKQYKVVVYSNTIQSIIAIIRAMGRLKIDFGEAARADDARQLFVLAGSAEEGVMTPELAGVIKRLWRDGGVQACFSRSREYQLNDSASYYLNDLDRISQSNYIPTQQDVLRTRVKTTGIVETHFTFKDLYFKMFDVGGQRSERKKWIHCFEGVTAIIFCVALSDYDLVLAEDEEMNRMHESMKLFDSICNNKWFTETSIILFLNKKDLFEEKIKRSPLTICYPEYTGSNTYEEAAAYIQCQFEDLNRRKDTKEIYTHFTCATDTKNVQFVFDAVTDVIIKNNLKECGLY [chain 1 L37A],1.46
2,chain 1 MGCTLSAEDKAAVERSKMIDRNLREDGEKAAKEVALLLLGAGESGKSTIVKQMKIIHEDGYSEDECKQYKVVVYSNTIQSIIAIIRAMGRLKIDFGEAARADDARQLFVLAGSAEEGVMTPELAGVIKRLWRDGGVQACFSRSREYQLNDSASYYLNDLDRISQSNYIPTQQDVLRTRVKTTGIVETHFTFKDLYFKMFDVGGQRSERKKWIHCFEGVTAIIFCVALSDYDLVLAEDEEMNRMHESMKLFDSICNNKWFTETSIILFLNKKDLFEEKIKRSPLTICYPEYTGSNTYEEAAAYIQCQFEDLNRRKDTKEIYTHFTCATDTKNVQFVFDAVTDVIIKNNLKECGLY [chain 1 K35A],2.79
3,chain 1 MGCTLSAEDKAAVERSKMIDRNLREDGEKAAKEVKLLLLGAGESGKSTIVKQMKIIHEDGYSEDECKQYKVVVYSNTIQSIIAIIRAMGRLKIDFGEAARADDARQLFVLAGSAEEGVMTPELAGVIKRLWRDGGVQACFSRSREYQLNDSASYYLNDLDRISQSNYIPTQQDVLRTRVKTTGIVETHFTFKDLYFKMFDVGGQRSERKKWIHCFEGATAIIFCVALSDYDLVLAEDEEMNRMHESMKLFDSICNNKWFTETSIILFLNKKDLFEEKIKRSPLTICYPEYTGSNTYEEAAAYIQCQFEDLNRRKDTKEIYTHFTCATDTKNVQFVFDAVTDVIIKNNLKECGLY [chain 1 V218A],1.92
4,chain 1 MGCTLSAEDKAAVERSKMIDRNLREDGEKAAKEVKLLLLGAGESGKSTIVKQMKIIHEDGYSEDECKQYKVVVYSNTIQSIIAIIRAMGRLKIDFGEAARADDARQLFVLAGSAEEGVMTPELAGVIKRLWRDGGVQACFSRSREYQLNDSASYYLNDLDRISQSNYIPTQQDVLRTRVKTTGIVETHFTFKDLYFKMFDVGGQRSERKKWIHCFEGVTAIIFCVALSDYDLVLAEDEEMNRMHESMKVFDSICNNKWFTETSIILFLNKKDLFEEKIKRSPLTICYPEYTGSNTYEEAAAYIQCQFEDLNRRKDTKEIYTHFTCATDTKNVQFVFDAVTDVIIKNNLKECGLY [chain 1 L249V],1.54
5,chain 1 MGCTLSAEDKAAVERSKMIDRNLREDGEKAAKEVKLLLLGAGESGKSTIVKQMKIIHEDGYSEDECKQYKVVVYSNTIQSIIAIIRAMGRLKIDFGEAARADDARQLFVLAGSAEEGVMTPELAGVIKRLWRDGGVQACFSRSREYQLNDSASYYLNDLDRISQSNYIPTQQDVLRTRVKTTGIVETHFTFKDLYFKMFDVGGQRSERKKAIHCFEGVTAIIFCVALSDYDLVLAEDEEMNRMHESMKLFDSICNNKWFTETSIILFLNKKDLFEEKIKRSPLTICYPEYTGSNTYEEAAAYIQCQFEDLNRRKDTKEIYTHFTCATDTKNVQFVFDAVTDVIIKNNLKECGLY [chain 1 W211A],1.11
6,chain 1 MGCTLSAEDKAAVERSKMIDRNLREDGEKAAKEVKLLLAGAGESGKSTIVKQMKIIHEDGYSEDECKQYKVVVYSNTIQSIIAIIRAMGRLKIDFGEAARADDARQLFVLAGSAEEGVMTPELAGVIKRLWRDGGVQACFSRSREYQLNDSASYYLNDLDRISQSNYIPTQQDVLRTRVKTTGIVETHFTFKDLYFKMFDVGGQRSERKKWIHCFEGVTAIIFCVALSDYDLVLAEDEEMNRMHESMKLFDSICNNKWFTETSIILFLNKKDLFEEKIKRSPLTICYPEYTGSNTYEEAAAYIQCQFEDLNRRKDTKEIYTHFTCATDTKNVQFVFDAVTDVIIKNNLKECGLY [chain 1 L39A],3.23
7,chain 1 MGCTLSAEDKAAVERSKMIDRNLREDGEKAAKEVKALLLGAGESGKSTIVKQMKIIHEDGYSEDECKQYKVVVYSNTIQSIIAIIRAMGRLKIDFGEAARADDARQLFVLAGSAEEGVMTPELAGVIKRLWRDGGVQACFSRSREYQLNDSASYYLNDLDRISQSNYIPTQQDVLRTRVKTTGIVETHFTFKDLYFKMFDVGGQRSERKKWIHCFEGVTAIIFCVALSDYDLVLAEDEEMNRMHESMKLFDSICNNKWFTETSIILFLNKKDLFEEKIKRSPLTICYPEYTGSNTYEEAAAYIQCQFEDLNRRKDTKEIYTHFTCATDTKNVQFVFDAVTDVIIKNNLKECGLY [chain 1 L36A],2.18
